Measured values reported in paper PMC5469197, “ANGUSTIFOLIA, a Plant Homolog of CtBP/BARS Localizes to Stress Granules and Regulates Their Formation” (Frontiers in Plant Science, 2017).

Assays:
[1] = target: T1, ARGONAUTE1 (AGO1), Prot-A fusion (Arabidopsis thaliana, UniProt O04379 1-1048); assay: co-IP; LUMIER in HEK293TN cells: Prot-A fusion co-transfected with Renilla luciferase fusion (AN always the luciferase fusion with the interactors); luciferase activity before (input) and after pulldown; percentage pulldown = pulldown/input x 100; empty vectors as negative control; positive if more than two times the background; conditions: partners not purified
T1 construct: ARGONAUTE1, Arabidopsis thaliana, AT1G48410; CDS amplified from Col-0 cDNA; source: HEK293TN cells, transfected; not shown: Protein A (Staphylococcus aureus), N-terminal, kept
T1 sequence (looked up): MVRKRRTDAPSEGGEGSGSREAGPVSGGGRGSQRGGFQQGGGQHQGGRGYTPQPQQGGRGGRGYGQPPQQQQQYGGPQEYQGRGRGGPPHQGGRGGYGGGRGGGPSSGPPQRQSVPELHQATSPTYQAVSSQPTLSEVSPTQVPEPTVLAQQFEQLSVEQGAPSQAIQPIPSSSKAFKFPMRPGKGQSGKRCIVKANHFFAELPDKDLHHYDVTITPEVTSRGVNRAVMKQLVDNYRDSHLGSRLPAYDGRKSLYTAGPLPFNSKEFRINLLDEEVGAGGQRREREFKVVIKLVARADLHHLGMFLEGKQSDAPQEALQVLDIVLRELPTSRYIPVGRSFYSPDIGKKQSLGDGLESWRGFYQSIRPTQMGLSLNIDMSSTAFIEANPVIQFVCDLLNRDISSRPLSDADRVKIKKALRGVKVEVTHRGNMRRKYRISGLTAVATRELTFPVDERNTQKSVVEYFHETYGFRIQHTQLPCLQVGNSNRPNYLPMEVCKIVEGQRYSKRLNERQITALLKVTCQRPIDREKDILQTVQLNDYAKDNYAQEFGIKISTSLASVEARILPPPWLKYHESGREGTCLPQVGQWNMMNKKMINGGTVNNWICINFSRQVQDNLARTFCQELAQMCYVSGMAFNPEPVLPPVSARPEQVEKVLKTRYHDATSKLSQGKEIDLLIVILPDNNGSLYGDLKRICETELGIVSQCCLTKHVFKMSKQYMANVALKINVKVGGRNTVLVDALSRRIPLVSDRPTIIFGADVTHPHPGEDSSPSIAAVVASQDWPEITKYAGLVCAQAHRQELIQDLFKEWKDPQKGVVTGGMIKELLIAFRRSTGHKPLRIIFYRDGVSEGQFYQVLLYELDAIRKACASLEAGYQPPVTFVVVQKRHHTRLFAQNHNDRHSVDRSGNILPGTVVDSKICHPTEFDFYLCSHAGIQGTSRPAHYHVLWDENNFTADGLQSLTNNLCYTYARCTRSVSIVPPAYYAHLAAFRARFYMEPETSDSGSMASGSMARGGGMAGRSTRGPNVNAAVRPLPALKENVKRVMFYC

[2] = target: T2, …ONALLY CONTROLLED TUMOR PROTEIN (TCTP), Prot-A fusion (Arabidopsis thaliana, UniProt P31265 1-168); assay: as above; conditions: partners not purified
T2 construct: Translationally controlled tumor protein, Arabidopsis thaliana, AT3G16640; CDS amplified from Col-0 cDNA; source: HEK293TN cells, transfected; not shown: Protein A (Staphylococcus aureus), N-terminal, kept
T2 sequence (looked up): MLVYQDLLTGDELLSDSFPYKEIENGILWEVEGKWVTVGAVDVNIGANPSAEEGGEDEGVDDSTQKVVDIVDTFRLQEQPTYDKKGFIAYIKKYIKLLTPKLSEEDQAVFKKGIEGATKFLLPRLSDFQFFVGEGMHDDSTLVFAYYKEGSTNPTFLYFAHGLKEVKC

B1: AN, Renilla luciferase fusion (LUMIER) (natural protein, Arabidopsis thaliana, UniProt O23702 1-636, looked up)
chain: MSKIRSSATMPHRDQPSPASPHVVTLNCIEDCALEQDSLAGVAGVEYVPLSRIADGKIESATAVLLHSLAYLPRAAQRRLRPHQLILCLGSADRAVDSTLAADLGLRLVHVDTSRAEEIADTVMALILGLLRRTHLLSRHALSASGWLGSLQPLCRGMRRCRGMVLGIVGRSVSARYLASRSLAFKMSVLYFDVPEGDEERIRPSRFPRAARRMDTLNDLLAASDVISLHCALTNDTVQILNAECLQHIKPGAFLVNTGSCQLLDDCAVKQLLIDGTIAGCALDGAEGPQWMEAWVKEMPNVLILPRSADYSEEVWMEIREKAISILHSFFLDGVIPSNTVSDEEVEESEASEEEEQSPSKHEKLAIVESTSRQQGESTLTSTEIVRREASELKESLSPGQQHVSQNTAVKPEGRRSRSGKKAKKRHSQQKYMQKTDGSSGLNEESTSRRDDIAMSDTEEVLSSSSRCASPEDSRSRKTPLEVMQESSPNQLVMSSKKFIGKSSELLKDGYVVALYAKDLSGLHVSRQRTKNGGWFLDTLSNVSKRDPAAQFIIAYRNKDTVGLRSFAAGGKLLQINRRMEFVFASHSFDVWESWSLEGSLDECRLVNCRNSSAVLDVRVEILAMVGDDGITRWID
notes: ANGUSTIFOLIA (AN), Arabidopsis thaliana, AT1G01510; CDS amplified from Col-0 cDNA; in the dimerisation test the second copy must have been the N-terminal protein A fusion (surmised from the LUMIER format); also called wild-type AN; source: HEK293TN cells, transfected; not shown: Renilla reniformis luciferase, N-terminal, kept
- fold change from background [1]: 5.02 fold
- percentage pulldown [1]: 0.47%
- fold change from background [2]: 3.12 fold
- percentage pulldown [2]: 0.28%
